Data from PMC2685089.

Tests used:
Experiment in all cases: EMSA
[1] = target: T1, Up1 (UniProt P09651-2 2-196)
[2] = target: hnRNP A1 (A1) (UniProt P09651-2 2-320)
[3] = target: T1, Up1; remark: listed apart in the source

B1: 32R (structured_DNA)
DNA: AGGGCGGTGTGGGAAGAGGGAAGAGGGGGAGG
Work on B1 yielded a Kd [1] of about 50 nM.

B2: dsNHE (32R:32Y) (dsDNA)
DNA 1: B1 DNA
DNA 2: CCTCCCCCTCTTCCCTCTTCCCACACCGCCCT
B2: no binding [2]; no binding [3].

B3: CKIT (structured_DNA)
DNA: AGGGAGGGCGCTGGGAGGAGGG
B3: binds [3].
